Data taken from US20020037996A1 (INSTITUTE OF PHYSICAL AND CHEMICAL RESEARCH, published 2002).

Molecular target: T1, nitrile hydratase (NHase) β subunit derived from Rhodococcus sp. N-771, in the nitrosylated (inactive) enzyme (Rhodococcus sp. N-771, UniProt P13449 1-212)
T1 sequence (looked up): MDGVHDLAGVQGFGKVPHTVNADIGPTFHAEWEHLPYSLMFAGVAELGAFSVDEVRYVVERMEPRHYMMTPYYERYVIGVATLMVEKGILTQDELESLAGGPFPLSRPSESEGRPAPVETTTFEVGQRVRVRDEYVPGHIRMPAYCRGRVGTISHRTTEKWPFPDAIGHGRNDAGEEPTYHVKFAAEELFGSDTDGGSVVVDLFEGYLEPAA
Experiment: X-ray crystallography of nitrosylated NHase, 1.7 Å; hetero-tetramer (αβ)2 in the crystal, dimer-tetramer equilibrium in solution by sedimentation equilibrium and dynamic light scattering
Source text: Two αβ hetero-dimers existed in an asymmetric unit of the crystal. […] The structural model was crystallographically refined at 1.7 Å resolution (R-factor 0.179, R-free0.228). […] The non-heme iron center was located at the interface between the two subunits in the hetero-dimer.

B1: nitrile hydratase (NHase) α subunit derived from Rhodococcus sp. N-771, in the nitrosylated (inactive) enzyme (enzyme, UniProt P13448 2-207, looked up)
chain: SVTIDHTTENAAPAQAPVSDRAWALFRALDGKGLVPDGYVEGWKKTFEEDFSPRRGAELVARAWTDPEFRQLLLTDGTAAVAQYGYLGPQGEYIVAVEDTPTLKNVIVCSLCSCTAWPILGLPPTWYKSFEYRARVVREPRKVLSEMGTEIASDIEIRVYDTTAETRYMVLPQRPAGTEGWSQEQLQEIVTKDCLIGVAIPQVPTV
modifications: cysteinesulfinic acid (Cys-SO2H) at 112; cysteinesulfenic acid (Cys-SOH) at 114; non-heme iron with bound NO coordinated by Cys109, Cys112, Ser113, Cys114
B1: binds.
